From the Immune Epitope Database (IEDB)

Experiments:
HLA-A*26:01 = experiment: IEDB peptide-MHC binding, purified MHC/direct/fluorescence; filed as Kd, often an IC50 or EC50 that approximates it; ≥ and ≤ were set here for values at or beyond the usual limits of such assays
HLA-B*40:01 = experiment: as above
HLA-A*11:01 [1] = experiment: as above
HLA-A*69:01 [2] = experiment: as above
HLA-B*58:01 = experiment: as above
HLA-B*27:05 = experiment: as above
HLA-A*02:01 = experiment: as above
HLA-B*44:02 = experiment: as above; settings: source organism: Giardia lamblia ATCC 50803
HLA-A*30:01 = experiment: as above
HLA-B*15:01 [3] = experiment: as above
HLA-A*01:01 [4] = experiment: as above
HLA-B*08:01 = experiment: as above
HLA-B*07:02 [5] = experiment: as above
HLA-A*03:01 [6] = experiment: as above
HLA-B*57:01 [7] = experiment: IEDB peptide-MHC binding, purified MHC/competitive/fluorescence; filed as Kd, often an IC50 or EC50 that approximates it; ≥ and ≤ were set here for values at or beyond the usual limits of such assays; settings: source organism: Brucella melitensis bv. 1 str. Rev.1
HLA-A*69:01 [8] = experiment: as above; settings: source organism: Brucella melitensis bv. 1 str. Rev.1
HLA-B*15:17 = experiment: as above
HLA-A*02:06 = experiment: as above; settings: source organism: Brucella melitensis bv. 1 str. Rev.1
HLA-B*48:01 = experiment: IEDB peptide-MHC binding, purified MHC/direct/fluorescence; filed as Kd, often an IC50 or EC50 that approximates it; ≥ and ≤ were set here for values at or beyond the usual limits of such assays
HLA-B*15:09 = experiment: as above; settings: source organism: Brucella suis ATCC 23445
HLA-B*18:01 [9] = experiment: as above; settings: source organism: Brucella abortus
HLA-B*46:01 = experiment: as above
HLA-B*38:01 = experiment: as above
HLA-A*31:01 [10] = experiment: as above
HLA-A*32:15 = experiment: IEDB peptide-MHC binding, purified MHC/competitive/fluorescence; filed as Kd, often an IC50 or EC50 that approximates it; ≥ and ≤ were set here for values at or beyond the usual limits of such assays; settings: source organism: Escherichia coli F11
HLA-B*45:06 = experiment: as above; settings: source organism: Escherichia coli F11
HLA-B*15:42 = experiment: as above; settings: source organism: Escherichia coli F11
HLA-A*68:23 = experiment: as above; settings: source organism: Escherichia coli F11
HLA-B*83:01 = experiment: as above; settings: source organism: Escherichia coli F11
HLA-A*03:01 [11] = experiment: as above; settings: source organism: Escherichia coli F11
HLA-A*31:01 [12] = experiment: as above; settings: source organism: Escherichia coli F11
HLA-B*35:01 = experiment: as above; settings: source organism: Vaccinia virus WR
HLA-B*18:01 [13] = experiment: as above; settings: source organism: Vaccinia virus WR
HLA-B*15:01 [14] = experiment: as above; settings: source organism: Vaccinia virus WR
HLA-A*01:01 [15] = experiment: as above; settings: source organism: Vaccinia virus WR
HLA-B*07:02 [16] = experiment: as above; settings: source organism: Vaccinia virus WR
HLA-A*26:02 = experiment: as above; settings: source organism: Vaccinia virus WR
HLA-B*08:03 = experiment: IEDB peptide-MHC binding, purified MHC/direct/fluorescence; filed as Kd, often an IC50 or EC50 that approximates it; ≥ and ≤ were set here for values at or beyond the usual limits of such assays; settings: source organism: Variola virus
HLA-B*57:01 [17] = experiment: as above; settings: source organism: Camelpox virus M-96
HLA-A*68:02 = experiment: as above; settings: source organism: Camelpox virus M-96
HLA-B*39:01 = experiment: as above; settings: source organism: Camelpox virus M-96
HLA-B*08:02 = experiment: as above; settings: source organism: Variola virus
HLA-A*11:01 [18] = experiment: IEDB peptide-MHC binding, purified MHC/competitive/fluorescence; ≥ and ≤ were set here for values at or beyond the usual limits of such assays; settings: source organism: Variola virus
HLA-A*24:03 = experiment: IEDB peptide-MHC binding, purified MHC/direct/fluorescence; filed as Kd, often an IC50 or EC50 that approximates it; ≥ and ≤ were set here for values at or beyond the usual limits of such assays; settings: source organism: Corynebacterium glutamicum
[19] = source organism: Giardia lamblia ATCC 50803
[20] = source organism: Brucella suis ATCC 23445
[21] = source organism: Brucella abortus
[22] = source organism: Camelpox virus M-96
[23] = source organism: Corynebacterium glutamicum

Sequence: ASSWAPTQK
- Kd (HLA-A*26:01; [19]): ≥ 20 µM
- Kd (HLA-B*40:01; [19]): ≥ 20 µM
- Kd (HLA-A*11:01 [1]; [19]): 0.0175 µM
- Kd (HLA-A*69:01 [2]; [19]): ≥ 20 µM
- Kd (HLA-B*58:01; [19]): ≥ 20 µM
- Kd (HLA-B*27:05; [19]): ≥ 20 µM
- Kd (HLA-A*02:01; [19]): ≥ 20 µM
- Kd (HLA-B*44:02): ≥ 20 µM
- Kd (HLA-A*30:01; [19]): 4.14 µM
- Kd (HLA-B*15:01 [3]; [19]): ≥ 20 µM
- Kd (HLA-A*01:01 [4]; [19]): ≥ 20 µM
- Kd (HLA-B*08:01; [19]): ≥ 20 µM
- Kd (HLA-B*07:02 [5]; [19]): ≥ 20 µM
- Kd (HLA-A*03:01 [6]; [19]): 0.51 µM

Sequence: FSDVSHWWQ
- Kd (HLA-B*57:01 [7]): ≥ 20 µM
- Kd (HLA-A*69:01 [8]): ≥ 20 µM
- Kd (HLA-B*15:17; source organism: Brucella melitensis bv. 1 str. Rev.1): ≥ 20 µM
- Kd (HLA-A*02:06): ≥ 20 µM
- Kd (HLA-A*26:01; [20]): ≥ 20 µM
- Kd (HLA-B*48:01; [21]): ≥ 20 µM
- Kd (HLA-B*40:01; [21]): ≥ 20 µM
- Kd (HLA-A*11:01 [1]; [21]): ≥ 20 µM
- Kd (HLA-B*58:01; [21]): 2.09 µM
- Kd (HLA-B*27:05; [21]): ≥ 20 µM
- Kd (HLA-A*02:01; [21]): ≥ 20 µM
- Kd (HLA-B*15:09): ≥ 20 µM
- Kd (HLA-B*18:01 [9]): ≥ 20 µM
- Kd (HLA-B*15:01 [3]; [21]): ≥ 20 µM
- Kd (HLA-A*01:01 [4]; [21]): 0.404 µM
- Kd (HLA-B*08:01; [20]): ≥ 20 µM
- Kd (HLA-B*46:01; [21]): ≥ 20 µM
- Kd (HLA-B*07:02 [5]; [21]): ≥ 20 µM
- Kd (HLA-A*03:01 [6]; [21]): ≥ 20 µM
- Kd (HLA-B*38:01; [20]): ≥ 20 µM
- Kd (HLA-A*31:01 [10]; [21]): ≥ 20 µM

Sequence: MTYSHHACR
- Kd (HLA-A*32:15): 0.824 µM
- Kd (HLA-B*45:06): ≥ 5 µM
- Kd (HLA-B*15:42): ≥ 5 µM
- Kd (HLA-A*68:23): 0.0002 µM
- Kd (HLA-B*83:01): ≥ 5 µM
- Kd (HLA-A*03:01 [11]): 0.078 µM
- Kd (HLA-A*31:01 [12]): 0.0183 µM

Sequence: IHIPGDTLF
- Kd (HLA-B*35:01): 0.366 µM
- Kd (HLA-B*15:17; source organism: Vaccinia virus WR): ≥ 20 µM
- Kd (HLA-B*18:01 [13]): ≥ 20 µM
- Kd (HLA-B*15:01 [14]): ≥ 20 µM
- Kd (HLA-A*01:01 [15]): ≥ 20 µM
- Kd (HLA-B*07:02 [16]): ≥ 5 µM
- Kd (HLA-A*26:02): ≥ 20 µM
- Kd (HLA-A*26:01; source organism: Variola virus): ≥ 20 µM
- Kd (HLA-B*48:01; [22]): ≥ 20 µM
- Kd (HLA-B*40:01; [22]): ≥ 20 µM
- Kd (HLA-B*08:03): ≥ 20 µM
- Kd (HLA-B*57:01 [17]): ≥ 20 µM
- Kd (HLA-A*69:01 [2]; [22]): ≥ 20 µM
- Kd (HLA-B*58:01; [22]): ≥ 20 µM
- Kd (HLA-B*27:05; [22]): ≥ 20 µM
- Kd (HLA-A*02:01; [22]): ≥ 20 µM
- Kd (HLA-B*08:01; source organism: Variola virus): ≥ 20 µM
- Kd (HLA-A*68:02): ≥ 20 µM
- Kd (HLA-B*39:01): ≥ 20 µM
- Kd (HLA-B*08:02): ≥ 20 µM
- Kd (HLA-B*46:01; [22]): ≥ 20 µM
- Kd (HLA-B*38:01; source organism: Variola virus): 0.392 µM
- IC50 (HLA-A*11:01 [18]): ≥ 152 µM

Sequence: VHDREGNEV
- Kd (HLA-A*26:01; [23]): ≥ 20 µM
- Kd (HLA-B*40:01; [23]): ≥ 20 µM
- Kd (HLA-A*11:01 [1]; [23]): ≥ 20 µM
- Kd (HLA-A*69:01 [2]; [23]): ≥ 20 µM
- Kd (HLA-B*58:01; [23]): ≥ 20 µM
- Kd (HLA-B*27:05; [23]): ≥ 20 µM
- Kd (HLA-A*02:01; [23]): ≥ 20 µM
- Kd (HLA-A*30:01; [23]): 4.84 µM
- Kd (HLA-B*15:01 [3]; [23]): ≥ 20 µM
- Kd (HLA-A*01:01 [4]; [23]): ≥ 20 µM
- Kd (HLA-B*08:01; [23]): ≥ 20 µM
- Kd (HLA-A*24:03): ≥ 20 µM
- Kd (HLA-A*03:01 [6]; [23]): ≥ 20 µM
- Kd (HLA-A*31:01 [10]; [23]): ≥ 20 µM
